Where “and” joins values, the source holds several entries; their conditions need not be identical. Equal values may be shown once.
T1: human LAIR1 on cells (human, UniProt Q6GTX8 22-287)
T1 construct: also called hLAIR1; Jurkat-hLAIR1+
T1 sequence: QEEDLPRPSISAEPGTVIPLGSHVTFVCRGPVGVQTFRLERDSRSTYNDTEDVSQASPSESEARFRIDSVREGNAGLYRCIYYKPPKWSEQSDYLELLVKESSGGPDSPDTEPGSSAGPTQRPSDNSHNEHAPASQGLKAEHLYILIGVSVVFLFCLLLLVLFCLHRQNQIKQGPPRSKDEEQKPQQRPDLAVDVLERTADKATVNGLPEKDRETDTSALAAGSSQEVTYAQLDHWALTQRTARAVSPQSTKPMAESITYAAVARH

T2: soluble, extracellular domain (ECD) of LAIR1 (human, UniProt Q6GTX8 22-163)
T2 construct: Produced recombinantly; also called LAIR1-ECD; LAIR1 ECD protein
T2 chain: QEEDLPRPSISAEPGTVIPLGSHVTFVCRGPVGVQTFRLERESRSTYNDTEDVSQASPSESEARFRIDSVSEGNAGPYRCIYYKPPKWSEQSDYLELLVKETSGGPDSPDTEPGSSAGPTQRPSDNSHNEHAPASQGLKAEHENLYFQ

T3: LAIR2 (human, UniProt Q6ISS4 22-152)
T3 construct: also called human LAIR2
T3 sequence (looked up): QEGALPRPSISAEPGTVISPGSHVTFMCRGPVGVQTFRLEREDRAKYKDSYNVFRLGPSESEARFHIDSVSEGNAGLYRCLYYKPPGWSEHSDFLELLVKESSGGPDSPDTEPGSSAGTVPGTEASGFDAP

B1: mAb1 (antibody, human IgG2, kappa)
heavy: QVQLQESGPGLVKPSETLSLTCTAFGGSISGHYWSWIRQPAGKGLEWIGRIYPSGGTNKNPSLKSRVTMSVDTSKNQFSLKLSSVTAADTAVYYCVRDYWDDYYGMDVWGQGTTVTVSSASTKGPSVFPLAPSSRSTSESTAALGCLVKDYFPEPVTVSWNSGALTSGVHTFPAVLQSSGLYSLSSVVTVPSSNFGTQTYTCNVDHKPSNTKVDKTVERKCCVECPPCPAPPVAGPSVFLFPPKPKDTLMISRTPEVTCVVVDVSHEDPEVQFNWYVDGMEVHNAKTKPREEQFNSTFRVVSVLTVVHQDWLNGKEYKCKVSNKGLPAPIEKTISKTKGQPREPQVYTLPPSREEMTKNQVSLTCLVKGFYPSDIAVEWESNGQPENNYKTTPPMLDSDGSFFLYSKLTVDKSRWQQGNVFSCSVMHEALHNHYTQKSLSLSPG
light: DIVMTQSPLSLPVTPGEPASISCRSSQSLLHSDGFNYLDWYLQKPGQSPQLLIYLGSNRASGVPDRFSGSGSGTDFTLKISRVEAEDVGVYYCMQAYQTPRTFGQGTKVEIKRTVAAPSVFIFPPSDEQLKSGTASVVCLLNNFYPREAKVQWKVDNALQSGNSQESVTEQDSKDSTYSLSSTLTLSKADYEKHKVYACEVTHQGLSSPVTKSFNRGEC
notes: also called anti-human LAIR1 antibody mAb1
B2: mAb4 (antibody, human IgG4 S228P, kappa)
heavy: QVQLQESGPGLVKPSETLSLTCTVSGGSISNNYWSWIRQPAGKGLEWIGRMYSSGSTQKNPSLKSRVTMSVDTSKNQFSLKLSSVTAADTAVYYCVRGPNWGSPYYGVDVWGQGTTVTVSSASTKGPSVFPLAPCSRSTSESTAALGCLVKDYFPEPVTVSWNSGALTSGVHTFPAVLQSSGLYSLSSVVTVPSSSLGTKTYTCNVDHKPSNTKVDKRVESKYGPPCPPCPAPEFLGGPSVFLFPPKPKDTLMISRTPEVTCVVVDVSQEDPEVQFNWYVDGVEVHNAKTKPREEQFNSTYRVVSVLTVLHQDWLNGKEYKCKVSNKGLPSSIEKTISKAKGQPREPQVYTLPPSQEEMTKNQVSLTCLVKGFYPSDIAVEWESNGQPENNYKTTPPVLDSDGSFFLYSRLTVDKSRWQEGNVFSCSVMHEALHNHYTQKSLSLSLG
light: DIVMTQSPLSLPVTPGEPASISCRSSPSLLHSDGYNWLDWYLQKPGQSPQLLIYLGSNRASGVPDRFSGSGSGTDFTLKISRVEAEDVGVYYCMQAHQTPFTFGQGTKVEIKRTVAAPSVFIFPPSDEQLKSGTASVVCLLNNFYPREAKVQWKVDNALQSGNSQESVTEQDSKDSTYSLSSTLTLSKADYEKHKVYACEVTHQGLSSPVTKSFNRGEC
notes: also called anti-human LAIR1 mAb4; LAIR1 agonist antibody
B3: mAb2 (antibody, human IgG2, kappa)
heavy: QVQLQESGPGLVKPSETLSLTCTVSGGSISNNYWSWIRQPAGKGLEWIGRMYSSGSTQKNPSLKSRVTMSVDTSKNQFSLKLSSVTAADTAVYYCVRGPNWGSPYYGVDVWGQGTTVTVSSASTKGPSVFPLAPSSRSTSESTAALGCLVKDYFPEPVTVSWNSGALTSGVHTFPAVLQSSGLYSLSSVVTVPSSNFGTQTYTCNVDHKPSNTKVDKTVERKCCVECPPCPAPPVAGPSVFLFPPKPKDTLMISRTPEVTCVVVDVSHEDPEVQFNWYVDGMEVHNAKTKPREEQFNSTFRVVSVLTVVHQDWLNGKEYKCKVSNKGLPAPIEKTISKTKGQPREPQVYTLPPSREEMTKNQVSLTCLVKGFYPSDIAVEWESNGQPENNYKTTPPMLDSDGSFFLYSKLTVDKSRWQQGNVFSCSVMHEALHNHYTQKSLSLSPG
light: B2 light
notes: also called anti-human LAIR1 antibody mAb2

Assays:
human LAIR1 on cells [1] = molecular target: T1, human LAIR1 on cells; assay: flow cytometry, primary human CD4+ T cells (endogenous LAIR1)
Experimental: (§1) The anti-human LAIR1 antibodies were evaluated for binding to human and cynomolgus monkey (cyno) LAIR1 engineered cell lines and primary human T cells that endogenously express LAIR1. Jurkat-hLAIR1+ (Jurkat cell overexpressing human LAIR1), Jurkat-LAIR1ko (Jurkat cell knocking out human LAIR1), Jurkat-cyLAIR1+ cells (Jurkat LAIR1ko cell expressing cyno LAIR1), and primary human T cells were incubated with the anti-human LAIR1 test antibodies. […] Cells were then washed and incubated with anti-human IgG Alexa Fluor 647 secondary antibody for 20 minutes at 4° C. Cells were then washed and antibody binding was evaluated by flow cytometry. For primary human T cells, cells were also stained for CD4 and CD8 to delineate CD4+ and CD8+ T cells.

human LAIR1 on cells [2] = molecular target: T1, human LAIR1 on cells; assay: cell-based or functional assay
human LAIR1 on cells [3] = molecular target: T1, human LAIR1 on cells; assay: flow cytometry, primary human CD8+ T cells (endogenous LAIR1)
Experimental: as §1

human LAIR1 on cells [4] = molecular target: T1, human LAIR1 on cells; assay: cell-based or functional assay; remark: listed apart in the source
[5] = molecular target: cynomolgus monkey LAIR1 on cells (cynomolgus monkey); assay: cell-based or functional assay
[6] = molecular target: T2, soluble, extracellular domain (ECD) of …; assay: SPR, Biacore 8K, 37 °C, antibody captured on anti-human kappa, LAIR1-ECD as analyte
Experimental: Antibody binding affinity and kinetics were determined by surface plasmon resonance (SPR) using a Biacore 8K (Cytivia Life Sciences). Measurements were performed at 37° C. using HBS-EP+ as the running buffer (150 mM sodium chloride, 3 mM EDTA, 0.05% (w/v) surfactant P-20, and 10 mM HEPES, pH7.4). Binding experiments used the soluble, extracellular domain (ECD) of LAIR1 (SEQ ID NO: 17), produced recombinantly, which was diluted to working concentration in HBS-EP+ containing 0.1 mg/mL Bovine serum albumin. Goat anti-Human kappa (Southern Biotech) was immobilized on all eight flow cells of a CM4 sensor chip using an amine coupling kit.
Binding was evaluated using multiple analytical cycles. Each cycle is performed at a flow rate of 30 μL/minute and consists of the following steps: injection of antibody over a different flow cell (25 μL of antibody at 0.5 μg/mL at 10 μL/minute), injection of 75 μL (30 μL/min, for 150 seconds) of each LAIR1-ECD dilution (starting at 1 μM and using three-fold serial dilutions to 1.4 nM for each cycle, with one injection for each concentration) followed by a 1200 second delay for dissociation, and chip surface regeneration using three 15 μL injections (30 μL/min, for 30 seconds) of 10 mM glycine hydrochloride, pH1.7. Association and dissociation rates for each cycle were determined by fitting of the biosensor data to a simple 1:1 association model using the provided instrument analysis software to extract the kₒₙ and koff rate constants; the equilibrium binding constant KD was calculated using the relationship Kd=koff/kₒₙ.

human LAIR1 on cells [7] = molecular target: T1, human LAIR1 on cells; assay: cell-based or functional assay; remark: listed apart in the source
[8] = molecular target: T4, cynomolgus monkey LAIR1 on cells (cynomolgus monkey); assay: flow cytometry, Jurkat-cyLAIR1+ cells
T4 construct: whole, on cells; Jurkat LAIR1ko cells expressing cyno LAIR1; also called cyno LAIR1; cyLAIR1
Experimental: as §1

human LAIR1 on cells [9] = molecular target: T1, human LAIR1 on cells; assay: flow cytometry, Jurkat-hLAIR1+ cells
Experimental: as §1

human LAIR1 on cells [10] = molecular target: T1, human LAIR1 on cells; assay: in vivo receptor occupancy by FACS on splenocytes, CD8 T cells; fit table; log10 of the dose, unit not given
Description: Human peripheral blood mononuclear cells (PBMCs) were engrafted into NSG mice where the human immune cells recognize the mouse as foreign and mount an immune response resulting in Graft versus Host Disease (GvHD). […] Blood was obtained on day 5 by retro-orbital sinus and day 8 by cardiac puncture and processed for analyses of serum cytokines (MSD human pro-inflammatory cytokine panel) and drug exposure (antigen capture ELISA).

Human C1q = molecular target: T5, Human C1q (human, UniProt P02745 23-245; P02746 28-253; P02747 29-245); assay: ELISA: antibody coated on the plate at the concentration shown, human C1q added at 10 ug/mL, detection with sheep anti-human C1q-HRP, OD450
T5 construct: Bought (MS Biomedical); also called complement component C1q
T5 sequence (P02745 23-245 limits assumed, chain 1 of 3): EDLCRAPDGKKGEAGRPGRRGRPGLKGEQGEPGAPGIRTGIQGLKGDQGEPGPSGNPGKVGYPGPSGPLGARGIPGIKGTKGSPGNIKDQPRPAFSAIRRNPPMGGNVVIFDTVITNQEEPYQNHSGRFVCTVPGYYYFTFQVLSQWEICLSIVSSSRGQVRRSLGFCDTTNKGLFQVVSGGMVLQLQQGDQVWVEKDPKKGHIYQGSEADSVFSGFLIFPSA
T5 sequence (P02746 28-253 limits assumed, chain 2 of 3): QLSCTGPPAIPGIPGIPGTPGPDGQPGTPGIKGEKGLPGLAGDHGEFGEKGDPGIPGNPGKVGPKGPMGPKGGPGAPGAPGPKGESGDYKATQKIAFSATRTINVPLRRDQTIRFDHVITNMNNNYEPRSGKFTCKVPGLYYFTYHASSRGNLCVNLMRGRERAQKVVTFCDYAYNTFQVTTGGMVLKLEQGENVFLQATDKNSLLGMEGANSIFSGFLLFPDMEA
T5 sequence (P02747 29-245 limits assumed, chain 3 of 3): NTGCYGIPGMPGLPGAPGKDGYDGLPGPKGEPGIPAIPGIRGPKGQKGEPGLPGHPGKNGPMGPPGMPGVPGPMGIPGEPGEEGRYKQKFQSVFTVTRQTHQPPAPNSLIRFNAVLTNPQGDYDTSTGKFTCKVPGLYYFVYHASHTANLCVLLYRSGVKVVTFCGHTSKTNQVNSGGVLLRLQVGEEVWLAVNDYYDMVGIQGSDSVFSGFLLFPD
Experimental: Testing was performed in duplicate wells. The plate was sealed and incubated overnight at 4° C. The coating reagent was removed from each well, and 200 μL/well of casein blocking reagent (Thermo) was added. The plate was sealed and incubated for 2 hours at room temperature (RT). Each well was washed 3 times with wash buffer (1×TBE with 0.05% Tween 20). One hundred microliters per well of Human C1q (MS Biomedical) at 10 μg/mL diluted in casein blocking reagent was added and incubated for 3 hours at RT. The plate was then washed three times with wash buffer before 100 μL/well of a 1:800 times dilution of Sheep anti-human C1q-HRP (Abcam #ab46191) in casein blocker was added and incubated for 1 hour at RT. The plate was washed 6 times with wash buffer, and 100 μL/well of TMB Substrate (Pierce) was added to each well and incubated for 7 minutes. […] Optical density was immediately measured using a colorimetric microplate reader set to 450 nm.

LAIR2 = molecular target: T3, LAIR2; assay: ELISA on hLAIR2, O.D.560 against antibody concentration
human LAIR1 on cells [11] = molecular target: T1, human LAIR1 on cells; assay: cell-based or functional assay; remark: listed apart in the source
human LAIR1 on cells [12] = molecular target: T1, human LAIR1 on cells; assay: in vivo receptor occupancy by FACS on splenocytes, Treg; fit table; log10 of the dose, unit not given
human LAIR1 on cells [13] = molecular target: T1, human LAIR1 on cells; assay: in vivo receptor occupancy by FACS on splenocytes, CD4 T cells; fit table; log10 of the dose, unit not given

Binder	EC50 (human LAIR1 on cells [1])	Inhibition of IL-6 response at 8 ng/mL (% inhibition vs. no antibody), primary human B cells (human LAIR1 on cells [2])	EC50 (human LAIR1 on cells [3])	IC50 of antibody activity, Jurkat-hLAIR1+ NFAT (human LAIR1 on cells [4])	Inhibition of NFAT Activity (% inhibition vs. no antibody), Jurkat-hLAIR1+ (human LAIR1 on cells [4])	Inhibition of NFAT Activity (% inhibition vs. no antibody), Jurkat-cyLAIR1+ [5]	Kd [6]	koff [6]	kon [6]	Inhibition of IFN-γ response at 1 µg/mL (% inhibition vs. no antibody), primary human T cells (human LAIR1 on cells [7])	EC50 [8]	EC50 (human LAIR1 on cells [9])	LogIC50 of % receptor occupancy, CD8 T cells (human LAIR1 on cells [10])	binding result (Human C1q)	binding result (LAIR2)	IC50 of inhibition of B cell IL-6 response to BCR stimulation (human LAIR1 on cells [11])	IC50 of inhibition of Jurkat-hLAIR1+ NFAT activation (human LAIR1 on cells [11])	LogIC50 of % receptor occupancy, Treg (human LAIR1 on cells [12])	LogIC50 of % receptor occupancy, CD4 T cells (human LAIR1 on cells [13])
B1	0.037 µg/mL	60.2%	0.0489 µg/mL	0.00942 µg/mL	54.2%	44.2%	0.121 nM	0.000174 s⁻¹	1.44e+06 M⁻¹ s⁻¹	35.7%	0.0784 µg/mL	0.0548 µg/mL	–	–	–	–	–	–	–
B2	0.0162 µg/mL	42.7%	0.0349 µg/mL	0.00666 µg/mL	60.4%	65.5%	0.291 nM	0.000317 s⁻¹	1.09e+06 M⁻¹ s⁻¹	41.1%	0.0893 µg/mL	0.0565 µg/mL	-0.864	no binding (tested: 10 ug/mL)	no binding (tested: 10 ug/ml)	0.0002 nM and 0.03 ng/mL	0.045 nM	-0.771	-0.933
B3	0.0288 µg/mL	35.4%	0.0414 µg/mL	0.00858 µg/mL	49.8%	59.6%	0.312 nM	0.000341 s⁻¹	1.09e+06 M⁻¹ s⁻¹	45.8%	0.0824 µg/mL	0.058 µg/mL	–	–	–	–	–	–	–

Source: patent US20240101670A1 (Eli Lilly, published 2024)
